# In patent US20170065725A1 (published 2017):
# Where two headings read alike, the source gives them in different places.
# What was measured:
# [1] = molecular target: T1, porcine TSH receptor (immobilized, TSH Receptor Autoantibody 2nd Generation ELISA kit, RSR Limited) (porcine, UniProt Q8SPP9 22-764, limits assumed); assay: competition ELISA; inhibition of biotinylated rhTSH binding to immobilized porcine TSH receptor
# T1 construct: Bought kit plates; the construct is not described
# Method: (§1) Purified PEGylated conjugates were analyzed by in vitro porcine TSH receptor binding assay using the TSH Receptor Autoantibody 2nd Generation ELISA kit from RSR Limited (Kronus, Star, Id.). Instead of using the biotinylated human monoclonal autoantibody to the TSH receptor provided by the kit, we biotinylated Thyrogen® (rhTSH) to use for competitive inhibition of binding to TSH receptor. Binding of biotinylated rhTSH to immobilized porcine TSH receptor was inhibited by either rhTSH control or PEGylated rhTSH conjugates and IC₅₀ values were measured.
# (§2) Thyrogen® was biotinylated with 1.7 to 1.8 biotins per protein using the ChromaLink™ Biotin Labeling Reagent according to the manufacturer's protocol (QED Bioscience Inc., San Diego, Calif.) and buffer exchanged into 50 mM sodium phosphate, 150 mM sodium chloride pH 7.0 with a Zeba™ Desalt Spin Column (Thermo Scientific, Rockford, Ill.). In vitro measurement of receptor binding was performed by competition of biotinylated Thyrogen® and PEG-rhTSH conjugate for binding to porcine TSH receptor immobilized onto 96-well plates supplied with the TSH Receptor Autoantibody 2nd Generation ELISA kit from RSR Limited (Kronus, Star, Id.). PEG-rhTSH conjugates were serially diluted 1:5 from 16 μM to 41 pM in assay buffer (100 mM HEPES pH 7.5, 20 mM EDTA, 1% BSA, 0.5% Triton X-100) and mixed 1:1 with biotinylated Thyrogen® diluted 1000-fold in assay buffer. The mixture was added to each receptor-coated well and incubated at 25° C. for 25 minutes. Unbound rhTSH was washed away and streptavidin peroxidase was added at 25° C. for 20 minutes according to the RSR Limited ELISA protocol to determine the amount of biotinylated Thyrogen® bound to the plate. The plate was then washed three times to remove excess unbound streptavidin peroxidase and then tetramethylbenzidine (TMB) was added to each well and incubated in the dark at 25° C. for 30 minutes. The reaction which was quenched with 0.5M sulfuric acid stop buffer and the absorbance of each well was read at 450 nm using a SpectraMax® 340pc plate reader (Molecular Devices, Sunnyvale, Calif.). The data was fit using a sigmoidal dose response equation with GraphPad Prism software to generate IC₅₀ values.
# [2] = molecular target: T1, porcine TSH receptor (immobilized, TSH …); assay: in vitro TSH receptor binding assay (competition ELISA)
# [3] = molecular target: T1, porcine TSH receptor (immobilized, TSH …); assay: competition ELISA; inhibition of biotinylated rhTSH binding to immobilized porcine TSH receptor; remark: listed apart in the source
# Method: as §1, §2
# T1 sequence (Q8SPP9 22-764 limits assumed): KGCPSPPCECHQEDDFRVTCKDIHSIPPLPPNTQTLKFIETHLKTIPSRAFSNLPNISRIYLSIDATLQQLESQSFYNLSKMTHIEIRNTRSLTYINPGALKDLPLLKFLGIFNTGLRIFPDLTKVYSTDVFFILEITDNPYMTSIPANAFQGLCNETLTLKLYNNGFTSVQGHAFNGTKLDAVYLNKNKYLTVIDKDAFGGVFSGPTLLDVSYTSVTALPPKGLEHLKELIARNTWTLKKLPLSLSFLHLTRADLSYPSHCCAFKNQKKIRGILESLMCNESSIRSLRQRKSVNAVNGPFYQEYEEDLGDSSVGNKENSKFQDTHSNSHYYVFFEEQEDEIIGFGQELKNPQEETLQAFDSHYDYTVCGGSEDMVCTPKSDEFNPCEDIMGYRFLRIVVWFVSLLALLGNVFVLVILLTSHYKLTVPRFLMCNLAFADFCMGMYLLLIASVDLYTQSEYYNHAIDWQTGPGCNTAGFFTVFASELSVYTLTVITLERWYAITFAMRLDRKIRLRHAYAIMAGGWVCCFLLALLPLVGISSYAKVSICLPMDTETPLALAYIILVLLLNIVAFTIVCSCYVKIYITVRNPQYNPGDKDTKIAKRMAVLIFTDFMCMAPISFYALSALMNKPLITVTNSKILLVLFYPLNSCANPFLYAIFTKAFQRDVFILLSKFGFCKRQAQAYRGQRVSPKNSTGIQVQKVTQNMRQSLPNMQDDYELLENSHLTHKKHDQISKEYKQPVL
IC50 [1] [nM],fold change (IC50 against rhTSH) [1] [fold],fold decrease of receptor binding affinity against rhTSH control [2] [fold],IC50 [3] [nM],fold change (IC50 against rhTSH) [3] [fold],Binder
41.6,1.5,,,,"G22C rhTSH (TSH G22C (alpha)) (ligand, Alpha Cys22 may carry a cap after expression; whether the assayed sample was capped is not stated. N-glycans at alpha Asn52, Asn78 and beta Asn23., Cysteine mutant without PEG, produced in CHO cells; also called alphaG22C TSH) alpha: not shown beta: FCIPTEYTMHIERRECAYCLTINTTICAGYCMTRDINGKLFLPKYALSQDVCTYRDFIYRTVEIPGCPLHVAPYFSYPVALSCKCGKCNTDYSDCIHEAIKTNYCTKPQKSYLVGFSV"
248,8.9,,,,"40 kD linear G22C (PEGylated Cys-mutant TSH) (ligand, Chain 1 (alpha) pos 22: Cys carrying a 40 kD linear cysteine-reactive PEG, written C. N-glycans at alpha Asn52, Asn78 and beta Asn23., also called 40 KD G22C) alpha: not shown beta: FCIPTEYTMHIERRECAYCLTINTTICAGYCMTRDINGKLFLPKYALSQDVCTYRDFIYRTVEIPGCPLHVAPYFSYPVALSCKCGKCNTDYSDCIHEAIKTNYCTKPQKSYLVGFSV"
743,26.5,,,,"40 kD 4-arm PEG G22C (ligand, Chain 1 (alpha) pos 22: Cys carrying a 40 kD 4-arm (branched) cysteine-reactive PEG, written C. N-glycans at alpha Asn52, Asn78 and beta Asn23.) alpha: not shown beta: FCIPTEYTMHIERRECAYCLTINTTICAGYCMTRDINGKLFLPKYALSQDVCTYRDFIYRTVEIPGCPLHVAPYFSYPVALSCKCGKCNTDYSDCIHEAIKTNYCTKPQKSYLVGFSV"
417,14.9,,,,"40 kD 2-arm PEG G22C (ligand, Chain 1 (alpha) pos 22: Cys carrying a 40 kD 2-arm (branched) cysteine-reactive PEG, written C. N-glycans at alpha Asn52, Asn78 and beta Asn23.) alpha: not shown beta: FCIPTEYTMHIERRECAYCLTINTTICAGYCMTRDINGKLFLPKYALSQDVCTYRDFIYRTVEIPGCPLHVAPYFSYPVALSCKCGKCNTDYSDCIHEAIKTNYCTKPQKSYLVGFSV"
319,11.4,11.1,397,10.8,"N-terminal mono-PEGylated rhTSH with 40 kD PEG (ligand, One 40 kD aldehyde PEG on an N-terminal amine (alpha Ala1 or beta Phe1; which subunit is not stated). N-glycans at alpha Asn52, Asn78 and beta Asn23. None is carried by the letters., also called 40 kD N-terminal) alpha: not shown beta: FCIPTEYTMHIERRECAYCLTINTTICAGYCMTRDINGKLFLPKYALSQDVCTYRDFIYRTVEIPGCPLHVAPYFSYPVALSCKCGKCNTDYSDCIHEAIKTNYCTKPQKSYLVGFSV"
28,1,,36.7,1,"Recombinant human TSH (rhTSH), THYROGEN Thyroid Stimulating Hormone (ligand, N-linked glycans at alpha Asn52 and Asn78 and beta Asn23; not carried by the letters., also called TSH control; control TSH; copies: 1 + 1) alpha: not shown beta: FCIPTEYTMHIERRECAYCLTINTTICAGYCMTRDINGKLFLPKYALSQDVCTYRDFIYRTVEIPGCPLHVAPYFSYPVALSCKCGKCNTDYSDCIHEAIKTNYCTKPQKSYLVGFSV"
